Source: US20260209320A1 (ALCHEMAB THERAPEUTICS, published 2026)

Tests used:
Peptide 26 [1] = target: T1, Peptide 26 (cyno); assay: peptide microarray; Sp C2; IgG 10 µg/ml
T1 construct: the array is said to hold 15-mers
T1 peptide: QPPPPPPPPPPPPQL

Peptide 21 [2] = target: T2, Peptide 21 (cyno); assay: peptide microarray; Sp C2; IgG 10 µg/ml
T2 peptide: AQPMLPQPQPPPPPP

Peptide 30 [3] = target: T3, Peptide 30 (cyno); assay: peptide microarray; Sp C2; IgG 10 µg/ml
T3 peptide: MLPQPQPPPPPPPPP

Peptide 1 [4] = target: T4, Peptide 1 (human, cyno); assay: peptide microarray; Sp C2; IgG 10 µg/ml
T4 peptide: QQQQQQQQPPPPPPP

Peptide 31 = target: T5, Peptide 31 (cyno); assay: peptide microarray; Sp C2; IgG 10 µg/ml
T5 peptide: LPQPQPPPPPPPPPP

Peptide 3 [5] = target: T6, Peptide 3 (human, cyno); assay: peptide microarray; Sp C2; IgG 10 µg/ml
T6 peptide: QQQQQQPPPPPPPPP

Peptide 25 [6] = target: T7, Peptide 25 (cyno); assay: peptide microarray; Sp C2; IgG 10 µg/ml
T7 peptide: QQPPPPPPPPPPPPQ

Peptide 4 [7] = target: T8, Peptide 4 (human, cyno); assay: peptide microarray; Sp C2; IgG 10 µg/ml
T8 peptide: QQQQQPPPPPPPPPP

Peptide 18 [8] = target: T9, Peptide 18 (cyno); assay: peptide microarray; Sp C2; IgG 10 µg/ml
T9 peptide: QQQPPPPPPPPPPPP

Peptide 28 = target: T10, Peptide 28 (cyno); assay: peptide microarray; Sp C2; IgG 10 µg/ml
T10 peptide: QPMLPQPQPPPPPPP

Peptide 2 [9] = target: T11, Peptide 2 (human, cyno); assay: peptide microarray; Sp C2; IgG 10 µg/ml
T11 peptide: QQQQQQQPPPPPPPP

Peptide 29 = target: T12, Peptide 29 (cyno); assay: peptide microarray; Sp C2; IgG 10 µg/ml
T12 peptide: PMLPQPQPPPPPPPP

Peptide 24 [10] = target: T13, Peptide 24 (cyno); assay: peptide microarray; Sp C2; IgG 10 µg/ml
T13 peptide: QQQQQQQQQPPPPPP

Epitope 1 [11] = target: T14, Epitope 1 (human, cyno); assay: peptide microarray; Sp C2; IgG 10 µg/ml
T14 peptide: QQQQPPPPPPPPPPP

Peptide 37 = target: T15, Peptide 37 (mouse); assay: peptide microarray; Sp M; IgG 10 µg/ml
T15 peptide: PPPQAPPPPPPPPPP

Peptide 36 = target: T16, Peptide 36 (mouse); assay: peptide microarray; Sp M; IgG 10 µg/ml
T16 peptide: QPPPQAPPPPPPPPP

Peptide 32 = target: T17, Peptide 32 (mouse); assay: peptide microarray; Sp M; IgG 10 µg/ml
T17 peptide: QQQQQPPPQAPPPPP

Peptide 16 = target: T18, Peptide 16 (human); assay: peptide microarray; Sp H; IgG 1 µg/ml
T18 peptide: PQPPPPPPPPPPGPA

Peptide 12 = target: T19, Peptide 12 (human); assay: peptide microarray; Sp H; IgG 1 µg/ml
T19 peptide: LLPQPQPPPPPPPPP

Peptide 7 = target: T20, Peptide 7 (human); assay: peptide microarray; Sp H; IgG 1 µg/ml
T20 peptide: PQAQPLLPQPQPPPP

Peptide 1 [12] = target: T4, Peptide 1; assay: peptide microarray; Sp H; IgG 1 µg/ml
Peptide 13 = target: T21, Peptide 13 (human); assay: peptide microarray; Sp H; IgG 1 µg/ml
T21 peptide: LPQPQPPPPPPPPPP

Peptide 17 = target: T22, Peptide 17 (human); assay: peptide microarray; Sp H; IgG 1 µg/ml
T22 peptide: QPPPPPPPPPPGPAV

Peptide 3 [13] = target: T6, Peptide 3; assay: peptide microarray; Sp H; IgG 1 µg/ml
Peptide 8 = target: T23, Peptide 8 (human); assay: peptide microarray; Sp H; IgG 1 µg/ml
T23 peptide: QAQPLLPQPQPPPPP

Peptide 10 = target: T24, Peptide 10 (human); assay: peptide microarray; Sp H; IgG 1 µg/ml
T24 peptide: QPLLPQPQPPPPPPP

Peptide 11 = target: T25, Peptide 11 (human); assay: peptide microarray; Sp H; IgG 1 µg/ml
T25 peptide: PLLPQPQPPPPPPPP

Peptide 4 [14] = target: T8, Peptide 4; assay: peptide microarray; Sp H; IgG 1 µg/ml
Peptide 9 = target: T26, Peptide 9 (human); assay: peptide microarray; Sp H; IgG 1 µg/ml
T26 peptide: AQPLLPQPQPPPPPP

Peptide 2 [15] = target: T11, Peptide 2; assay: peptide microarray; Sp H; IgG 1 µg/ml
Epitope 1 [16] = target: T14, Epitope 1; assay: peptide microarray; Sp H; IgG 1 µg/ml
Peptide 26 [17] = target: T1, Peptide 26; assay: peptide microarray; Sp C2; IgG 1 µg/ml
Peptide 21 [18] = target: T2, Peptide 21; assay: peptide microarray; Sp C2; IgG 1 µg/ml
Peptide 30 [19] = target: T3, Peptide 30; assay: peptide microarray; Sp C2; IgG 1 µg/ml
Peptide 3 [20] = target: T6, Peptide 3; assay: peptide microarray; Sp C2; IgG 1 µg/ml
Peptide 25 [21] = target: T7, Peptide 25; assay: peptide microarray; Sp C2; IgG 1 µg/ml
Peptide 4 [22] = target: T8, Peptide 4; assay: peptide microarray; Sp C2; IgG 1 µg/ml
Peptide 18 [23] = target: T9, Peptide 18; assay: peptide microarray; Sp C2; IgG 1 µg/ml
Peptide 2 [24] = target: T11, Peptide 2; assay: peptide microarray; Sp C2; IgG 1 µg/ml
Peptide 24 [25] = target: T13, Peptide 24; assay: peptide microarray; Sp C2; IgG 1 µg/ml
Epitope 1 [26] = target: T14, Epitope 1; assay: peptide microarray; Sp C2; IgG 1 µg/ml

B1: ATL_0005335 (antibody, V domains shown)
VH: EVQLVESGGGLVKPGGSLRLSCAASGFTFNKAWMNWVRQAPGKGLEWVGRIKSGIDGGTTDYAAPVQGRFTISRDDSKNTVYLQMNSLNTEDTAVYYCIPPPYYYYYGLDVWGQGTTVTVSS
VL: QSALTQPASVSGSPGQSITISCTGTSSDIGSYNLVSWYQQHPGNAPKPLIYEGSKRPSGVSARFSGSKSGNTASLTISGLQPEDEADYYCSSYAGFNTLVFGGGTKVTVL
notes: human IgG1; also called ATL_5335
In the case of B1, the corrected fluorescence intensity (Peptide 26 [1]) is reported as 1910, the corrected fluorescence intensity (Peptide 21 [2]) is reported as 448 and the corrected fluorescence intensity (Peptide 30 [3]) is reported as 6020. The corrected fluorescence intensity (Peptide 1 [4]) was 7010, the corrected fluorescence intensity (Peptide 31) was 7740 and the corrected fluorescence intensity (Peptide 3 [5]) was 9510. It also gave a corrected fluorescence intensity (Peptide 25 [6]) of 3300, a corrected fluorescence intensity (Peptide 4 [7]) of 10000 and a corrected fluorescence intensity (Peptide 18 [8]) of 8370. The corrected fluorescence intensity (Peptide 28) was 2670, the corrected fluorescence intensity (Peptide 2 [9]) was 8870 and the corrected fluorescence intensity (Peptide 29) was 4680. For the same binder, the corrected fluorescence intensity (Peptide 24 [10]) was 3260, the corrected fluorescence intensity (Epitope 1 [11]) was 9590 and the corrected fluorescence intensity (Peptide 37) was 7370. It also gave a corrected fluorescence intensity (Peptide 36) of 8300, a corrected fluorescence intensity (Peptide 32) of 286 and a corrected fluorescence intensity (Peptide 16) of 77.5. The corrected fluorescence intensity (Peptide 12) was 932, the corrected fluorescence intensity (Peptide 7) was 0 and the corrected fluorescence intensity (Peptide 1 [12]) was 0. For the same binder, the corrected fluorescence intensity (Peptide 13) was 1130, the corrected fluorescence intensity (Peptide 17) was 0 and the corrected fluorescence intensity (Peptide 3 [13]) was 626. The corrected fluorescence intensity (Peptide 8) was 434, the corrected fluorescence intensity (Peptide 10) was 845 and the corrected fluorescence intensity (Peptide 11) was 936. For the same binder, the corrected fluorescence intensity (Peptide 4 [14]) was 409, the corrected fluorescence intensity (Peptide 9) was 622 and the corrected fluorescence intensity (Peptide 2 [15]) was 417. The corrected fluorescence intensity (Epitope 1 [16]) was 293, the corrected fluorescence intensity (Peptide 26 [17]) was 128 and the corrected fluorescence intensity (Peptide 21 [18]) was 168. It also gave a corrected fluorescence intensity (Peptide 30 [19]) of 772, a corrected fluorescence intensity (Peptide 3 [20]) of 1220 and a corrected fluorescence intensity (Peptide 25 [21]) of 507. It also gave a corrected fluorescence intensity (Peptide 4 [22]) of 1110, a corrected fluorescence intensity (Peptide 18 [23]) of 1270 and a corrected fluorescence intensity (Peptide 2 [24]) of 1160. The corrected fluorescence intensity (Peptide 24 [25]) was 562 and the corrected fluorescence intensity (Epitope 1 [26]) was 1400.

B2: ATL_0005331 (antibody, V domains shown)
VH: EVQLVESGGGLVKPGGSLRLSCAASGFTFNKAWMNWVRQAPGKGLEWVGRIKSGIDGGTTDYAAPVQGRFTISRDDSKNTVYLQMNSLNTEDTAVYYCIPPPYYYYYGLDVWGQGTTVTVSS
VL: QSALTQPRSVSGSPGQSITISCTGTSSDVGSYNLVSWFQQHPGKAPKLIIYEVNKRPSGVPDRFSGSKSGNTASLTVSGLQAEDEADYYCGSYAGTNNVFGTGTKLTVL
notes: human IgG1; also called ATL_5331; Human IgG1 ATL_0005331
Binder B2 has a corrected fluorescence intensity (Peptide 26 [1]) of 1040, a corrected fluorescence intensity (Peptide 21 [2]) of 888 and a corrected fluorescence intensity (Peptide 30 [3]) of 4250. The corrected fluorescence intensity (Peptide 1 [4]) was 2700, the corrected fluorescence intensity (Peptide 31) was 5480 and the corrected fluorescence intensity (Peptide 3 [5]) was 4830. For the same binder, the corrected fluorescence intensity (Peptide 25 [6]) was 947, the corrected fluorescence intensity (Peptide 4 [7]) was 4870 and the corrected fluorescence intensity (Peptide 18 [8]) was 4500. The corrected fluorescence intensity (Peptide 28) was 1700, the corrected fluorescence intensity (Peptide 2 [9]) was 4070 and the corrected fluorescence intensity (Peptide 29) was 2170. For the same binder, the corrected fluorescence intensity (Peptide 24 [10]) was 994, the corrected fluorescence intensity (Epitope 1 [11]) was 4580 and the corrected fluorescence intensity (Peptide 37) was 3160. For the same binder, the corrected fluorescence intensity (Peptide 36) was 2740, the corrected fluorescence intensity (Peptide 32) was 0 and the corrected fluorescence intensity (Peptide 16) was 90.2. For the same binder, the corrected fluorescence intensity (Peptide 12) was 374, the corrected fluorescence intensity (Peptide 7) was 0 and the corrected fluorescence intensity (Peptide 1 [12]) was 131. It also gave a corrected fluorescence intensity (Peptide 13) of 373, a corrected fluorescence intensity (Peptide 17) of 85.5 and a corrected fluorescence intensity (Peptide 3 [13]) of 276. It also gave a corrected fluorescence intensity (Peptide 8) of 260, a corrected fluorescence intensity (Peptide 10) of 274 and a corrected fluorescence intensity (Peptide 11) of 280. It also gave a corrected fluorescence intensity (Peptide 4 [14]) of 238, a corrected fluorescence intensity (Peptide 9) of 229 and a corrected fluorescence intensity (Peptide 2 [15]) of 197. It also gave a corrected fluorescence intensity (Epitope 1 [16]) of 291, a corrected fluorescence intensity (Peptide 26 [17]) of 141 and a corrected fluorescence intensity (Peptide 21 [18]) of 154. For the same binder, the corrected fluorescence intensity (Peptide 30 [19]) was 256, the corrected fluorescence intensity (Peptide 3 [20]) was 548 and the corrected fluorescence intensity (Peptide 25 [21]) was 206. It also gave a corrected fluorescence intensity (Peptide 4 [22]) of 546, a corrected fluorescence intensity (Peptide 18 [23]) of 474 and a corrected fluorescence intensity (Peptide 2 [24]) of 462. It also gave a corrected fluorescence intensity (Peptide 24 [25]) of 146 and a corrected fluorescence intensity (Epitope 1 [26]) of 379.
